In US20120328616A1 (Amgen, published 2012):
Changes are numbered by the printed parent chain.

T1: huBeta_Klotho (1-81, 523-1044) (muBetaKLOTHO 82-520) (human; murine, UniProt Q86Z14 1-1044)
T1 construct: Expressed on HEK-293T cells; also called Chimera 1; Construct 1
T1 chain: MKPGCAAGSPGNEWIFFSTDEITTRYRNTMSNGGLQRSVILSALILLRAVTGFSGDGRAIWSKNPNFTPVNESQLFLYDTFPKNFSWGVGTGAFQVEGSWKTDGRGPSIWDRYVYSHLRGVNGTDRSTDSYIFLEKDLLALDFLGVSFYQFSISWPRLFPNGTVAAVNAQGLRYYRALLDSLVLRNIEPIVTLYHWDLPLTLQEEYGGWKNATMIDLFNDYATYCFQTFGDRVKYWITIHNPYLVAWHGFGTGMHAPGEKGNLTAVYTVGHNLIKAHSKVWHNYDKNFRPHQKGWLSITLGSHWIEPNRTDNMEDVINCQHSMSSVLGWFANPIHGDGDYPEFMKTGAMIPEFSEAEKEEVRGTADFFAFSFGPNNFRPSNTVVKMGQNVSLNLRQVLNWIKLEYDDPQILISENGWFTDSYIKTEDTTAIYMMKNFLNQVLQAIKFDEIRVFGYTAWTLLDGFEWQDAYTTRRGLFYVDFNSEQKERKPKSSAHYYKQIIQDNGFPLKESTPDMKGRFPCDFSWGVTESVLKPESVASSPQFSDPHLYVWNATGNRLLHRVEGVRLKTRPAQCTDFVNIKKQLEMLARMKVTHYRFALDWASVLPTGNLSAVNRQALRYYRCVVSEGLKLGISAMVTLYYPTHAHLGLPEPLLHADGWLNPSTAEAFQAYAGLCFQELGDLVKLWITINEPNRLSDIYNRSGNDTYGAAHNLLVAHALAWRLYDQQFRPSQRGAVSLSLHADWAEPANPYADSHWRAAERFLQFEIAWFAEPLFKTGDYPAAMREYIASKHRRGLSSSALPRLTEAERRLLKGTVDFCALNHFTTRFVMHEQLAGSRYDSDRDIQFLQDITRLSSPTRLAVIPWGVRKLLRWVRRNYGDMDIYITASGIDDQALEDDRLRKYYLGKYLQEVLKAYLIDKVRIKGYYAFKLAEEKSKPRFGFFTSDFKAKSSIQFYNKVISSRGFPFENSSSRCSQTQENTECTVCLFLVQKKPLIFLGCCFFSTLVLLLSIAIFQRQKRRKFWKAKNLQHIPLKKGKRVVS

B1: 65C3.1 (antibody, V domains shown)
VH: QVQLQESGPGLVKPSETLSLTCTVSGGSISSYYWSWIRQPPGKGLEWIGYIYYTGSTNYNPSLKSRVTISVDTSKNQFSLKLSSVTAADTAVYYCAREYYYGSGSYYPWGQGTLVTVSS
VL: EMVMTQSPATLSVSPGERATLSCRASQSVSSQLAWYQEKPGRAPRLLIYGASNRAIDIPARLSGSGSGTEFTLTISSLQSEDFAVYYCQQYNNWPWTFGQGTKVEFKR
B2: 67C10.1 (antibody, V domains shown)
VH: EVQLVQSGAEVKKPGESLKISCQGSGYSFSSYWIGWVRQMPGKGLEWMGIIYPGDSDTRYSPSFQGQVTISADKSINTAYLQWSSLKASDTAIYYCARRASRGYRYGLAFAIWGQGTMVTVSS
VL: DFVMTQTPLSLPVTPGEPASISCRSSQSLLNSDDGNTYLDWYLQKPGQSPQLLIYTLSYRASGVPDRFSGSGSGTDFTLKISRVEAEDVGVYYCMQRIEFPITFGQGTRLEIKR
B3: 51E5.1 (antibody, V domains shown)
VH: QVQLQQWGAGLLKPSETLSLTCAVYGGSFSGYYWSWIRQPPGKGLEWIGELDHSGSINYNPSLKSRVTISVDTSKNQFSLKLTSVTAADTAVYYCARVLGSTLDYWGQGTLVTVSS
VL: DIQMTQSPSSLSASVGDRVTITCRASQDIRNDLGWYQQKPGKAPNRLIYAASSLQFGVPSRFSGSGSGTEFTLTISSLQPEDFATYYCLQHSSYPLTFGGGTRVEIKR
B4: 66G2.1 (antibody, V domains shown)
VH: QVQLVESGGGVVQPGRSLRLSCAASGFTFSSYGMHWVRQAPGKGLEWVAGISYDGSNKNYADSVKGRITISRDNPKNTLYLQMNSLRAEDTAVYYCATTVTKEDYYYYGMDVWGQGTTVTVSS
VL: B3 VL with D28G, N45K, S53N, F56S, E70K, S76N, H91L, S92N, S93G, R103K
B5: 67F5.1 (antibody, V domains shown)
VH: B1 VH with Q5K, T54S, S56N
VL: EIVMTQSPATLSVSPGERVTLSCRASQSVSSNLAWYQQKPGQAPRLLIHGSSNRAIGIPARFSGSGSGTEFTLTISSLQSADFAVYNCQQYEIWPWTFGQGTKVEIKR
B6: 49G3.3 (antibody, V domains shown)
VH: QVTLKESGPVLVKPTETLTLTCTVSGFSLSNPRMGVSWIRQPPGKALEWLTHIFSNDEKSYSTSLKSRLTISKDTSKSQVVLSMTNMDPVDTATYYCVRVDTLNYHYYGMDVWGQGTTVTVSS
VL: DIQMTQSPSSLSASIGDRVTITCQASQGISNYLNWYQQKPGKAPKLLIYDASNLETGVPSRFSGSGSGTDFTFTISSLQPEDIATYYCHQYDDLPLTFGGGTKVEIRR

How the values were obtained:
[1] = molecular target: T2, huBeta_Klotho (1-521, 738-1044) (muBeta KLOTHO 520P-735A) (human; murine, UniProt Q86Z14 1-1044); assay: flow cytometry, transfected HEK-293T
T2 construct: also called Chimera 9; Construct 9

[2] = molecular target: T1, huBeta_Klotho (1-81, 523-1044) …; assay: flow cytometry, transfected HEK-293T
[3] = molecular target: T3, huBeta_Klotho (82-1044) (muBeta KLOTHO 1-81F) (murine; human, UniProt Q86Z14 1-1044); assay: flow cytometry, transfected HEK-293T
T3 construct: also called Chimera 12; Construct 12

[4] = molecular target: T4, huBeta_Klotho (1-736, 967-1044) (muBeta KLOTHO 735A-963S) (human; murine, UniProt Q86Z14 1-1044); assay: flow cytometry, transfected HEK-293T
T4 construct: also called Chimera 11; Construct 11

[5] = molecular target: T5, huBeta_Klotho (1-193, 419-1044) (muBetaKLOTHO Y194-416G) (human; murine, UniProt Q86Z14 1-1044); assay: flow cytometry, transfected HEK-293T
T5 construct: also called Chimera 5; Construct 5

human FGFR1c [6] = molecular target: T6, human FGFR1c (human, UniProt P11362 22-822); assay: flow cytometry, transfected HEK293T; mock-transfected cells 688
T6 construct: Full length (GenBank NP-075598), expressed on transfected 293T cells; also called huFGFR1c; FGFR1c alone

[7] = molecular target: T7, human FGFR1c/human β-Klotho complex (FGF21 receptor) (human, UniProt P11362 22-822); assay: as above
T7 construct: Both full-length proteins co-expressed on cells (HEK293T, CHO, L6); also called HuFGFR1c/Hu β-Klotho; huFGF21R

[8] = molecular target: T8, cynomologous monkey FGFR1c/cynomologous monkey β-Klotho (co-transfected) (cynomologous monkey); assay: as above
T8 construct: whole, on cells; also called Cyno FGFR1c/Cyno β-Klotho

human FGFR1c [9] = molecular target: T6, human FGFR1c; assay: flow cytometry, transfected HEK293T; mock-transfected cells 723
[10] = molecular target: T8, cynomologous monkey FGFR1c/cynomologous …; assay: as above
human FGFR1c [11] = molecular target: T6, human FGFR1c; assay: flow cytometry, transfected HEK293T; mock-transfected cells 695
[12] = molecular target: T7, human FGFR1c/human β-Klotho complex …; assay: as above
[13] = molecular target: T8, cynomologous monkey FGFR1c/cynomologous …; assay: as above
human FGFR1c [14] = molecular target: T6, human FGFR1c; assay: flow cytometry, transfected HEK293T; mock-transfected cells 632
[15] = molecular target: T7, human FGFR1c/human β-Klotho complex …; assay: as above
[16] = molecular target: T8, cynomologous monkey FGFR1c/cynomologous …; assay: as above
human FGFR1c [17] = molecular target: T6, human FGFR1c; assay: flow cytometry, transfected HEK293T; mock-transfected cells 648
[18] = molecular target: T7, human FGFR1c/human β-Klotho complex …; assay: as above
[19] = molecular target: T8, cynomologous monkey FGFR1c/cynomologous …; assay: as above

| Binder | binding result [1] | binding result [2] | binding result [3] | binding result [4] | binding result [5] | GeoMean (human FGFR1c [6]) | GeoMean [7] | GeoMean [8] | GeoMean (human FGFR1c [9]) | GeoMean [10] | GeoMean (human FGFR1c [11]) | GeoMean [12] | GeoMean [13] | GeoMean (human FGFR1c [14]) | GeoMean [15] | GeoMean [16] | GeoMean (human FGFR1c [17]) | GeoMean [18] | GeoMean [19] |
| --- | --- | --- | --- | --- | --- | --- | --- | --- | --- | --- | --- | --- | --- | --- | --- | --- | --- | --- | --- |
| B1 | binds | binds | binds | no binding | binds | – | – | – | – | – | – | – | – | – | – | – | – | – | – |
| B2 | no binding | binds | binds | no binding | binds | 780 | 18900 | 4060 | – | – | – | – | – | – | – | – | – | – | – |
| B3 | no binding | binds | binds | no binding | binds | – | – | – | 747 | 36500 | – | – | – | – | – | – | – | – | – |
| B4 | no binding | binds | binds | no binding | binds | – | – | – | – | – | 780 | 16700 | 21600 | – | – | – | – | – | – |
| B5 | no binding | binds | binds | no binding | binds | – | – | – | – | – | – | – | – | 757 | 13900 | 15800 | – | – | – |
| B6 | binds | no binding | no binding | binds | no binding | – | – | – | – | – | – | – | – | – | – | – | 706 | 17900 | 25900 |
